Assay results reported in patent KR20210028556A (dated 2021).
Changes are numbered by the printed parent chain.

B1: A2F2 (antibody, human IgG1, lambda, V domains shown)
VH: EVQLLESGGGLVQPGGSLRLSCAASGFTFSDYYMSWVRQAPGKGLEWVSSISPDGSNTYYADSVKGRFTISRDNSKNTLYLQMNSLRAEDTAVYYCAKNLRAFDYWGQGTLVTVSS
VL: QSVLTQPPPASGTPGQRVTISCSGSSSNIGSNTVYWYQQLPGTAPKLLIYANSQRPSGVPDRFSGSKSGTSASLAISGLRSEDEADYYCGSWDYSLSGYVFGGGTKLTVLG
notes: full IgG, human IgG1 heavy and lambda light constant regions; expressed in CHO-S; also called 항-ROR1 IgG 항체 A2F2
B2: D2B12 (antibody, human IgG1, lambda, V domains shown)
VH: EVQLLESGGGLVQPGGSLRLSCAASGFTFSNYDMSWVRQAPGKGLEWVSSISPSSGSSIYYADSVKGRFTISRDNSKNTLYLQMNSLRAEDTAVYYCAKAPGWCQAPSCYYDNAMDVWGQGTLVTVSS
VL: B1 VL with P9S, S31N, T33D, Y35S, A51D, N52D, S91A, Y94D
notes: full IgG, human IgG1 heavy and lambda light constant regions; expressed in CHO-S; also called 항-ROR1 IgG 항체 D2B12
B3: BA6 (antibody, human IgG1, lambda, V domains shown)
VH: EVQLLESGGGLVQPGGSLRLSCAASGFTFSNYDMSWVRQAPGKGLEWVSAIYHSGSSKYYADSVKGRFTISRDNSKNTLYLQMNSLRAEDTAVYYCARGGNGAWDTGFDYWGQGTLVTVSS
VL: B1 VL with P9S, T33D, Y35S, A51Y, N52D, S53N, Q54N, S91A, Y94D
notes: full IgG, human IgG1 heavy and lambda light constant regions; expressed in CHO-S; also called 항-ROR1 IgG 항체 BA6
B4: CC9 (antibody, human IgG1, lambda, V domains shown)
VH: EVQLLESGGGLVQPGGSLRLSCAASGFTFSSYDMSWVRQAPGKGLEWVSGISHGSGNKYYADSVKGRFTISRDNSKNTLYLQMNSLRAEDTAVYYCAKRLSLRRRPSYYSDNAMDVWGQGTLVTVSS
VL: B1 VL with P9S, S23T, S31N, T33A, Y35N, A51Y, N52D, Q54N, S91A, Y94D
notes: full IgG, human IgG1 heavy and lambda light constant regions; expressed in CHO-S; also called 항-ROR1 IgG 항체 CC9
B5: DG6 (antibody, human IgG1, lambda, V domains shown)
VH: EVQLLESGGGLVQPGGSLRLSCAASGFTFSDYDMSWVRQAPGKGLEWVSVISPDGGSIYYADSVKGRFTISRDNSKNTLYLQMNSLRAEDTAVYYCARDVVECNMNPCSYDNAMDVWGQGTLVTVSS
VL: B1 VL with P9S, T33Y, Y35S, A51D, N52D, Q54H, S91A, Y94D
notes: full IgG, human IgG1 heavy and lambda light constant regions; expressed in CHO-S; also called 항-ROR1 IgG 항체 DG6
B6: A2F3 (antibody, human IgG1, lambda, V domains shown)
VH: EVQLLESGGGLVQPGGSLRLSCAASGFTFSSYDMSWVRQAPGKGLEWVSWISPGGGSKYYADSVKGRFTISRDNSKNTLYLQMNSLRAEDTAVYYCARVNGRFDYWGQGTLVTVSS
VL: B1 VL with P9S, S31N, T33N, Y35S, N52D, Q54H, G90A, S91T
notes: full IgG, human IgG1 heavy and lambda light constant regions; expressed in CHO-S; also called 항-ROR1 IgG 항체 A2F3
B7: A2F2 M1 (antibody, human IgG1, lambda, V domains shown)
VH: B1 VH with G55A
VL: B1 VL
notes: full IgG, human IgG1 heavy and lambda light constant regions; expressed in CHO-S; also called 항-ROR1 IgG 항체 A2F2 M1
B8: BA6 M1 (antibody, human IgG1, lambda, V domains shown)
VH: B3 VH with G102A
VL: B1 VL with P9S, T33D, Y35S, A51Y, N52D, S53N, Q54N, S91A, Y94D
notes: full IgG, human IgG1 heavy and lambda light constant regions; expressed in CHO-S; also called 항-ROR1 IgG 항체 BA6 M1
B9: AB4 (antibody, human IgG1, lambda, V domains shown)
VH: B6 VH with G54D, G55S, K58I, V99P, N100T
VL: B1 VL with P9S, S31N, T33N, Y35N, A51Y, N52D, S53N, Q54K, S91T, Y94A
notes: full IgG, human IgG1 heavy and lambda light constant regions; expressed in CHO-S; also called 항-ROR1 IgG 항체 AB4
B10: C2E3 (antibody, human IgG1, lambda, V domains shown)
VH: EVQLLESGGGLVQPGGSLRLSCAASGFTFSNYAMSWVRQAPGKGLEWVSSISHNSGSTYYADSVKGRFTISRDNSKNTLYLQMNSLRAEDTAVYYCAKFISARKSLGRSYSNGMDVWGQGTLVTVSS
VL: B1 VL with P9S, S23T, T33D, Y35T, N52D, Q54K, S91T
notes: full IgG, human IgG1 heavy and lambda light constant regions; expressed in CHO-S; also called 항-ROR1 IgG 항체 C2E3; ROR1 단일클론항체(C2E3)

Target: T1, 인간 ROR1 (세포 표면 발현) (human, UniProt Q01973 30-937)
T1 construct: whole, on cells; endogenous on JeKo-1, Mino and other human cancer lines; overexpressed on CHO and MC38 cells; also called hROR1; CHO-human ROR1
T1 sequence (Q01973 30-937): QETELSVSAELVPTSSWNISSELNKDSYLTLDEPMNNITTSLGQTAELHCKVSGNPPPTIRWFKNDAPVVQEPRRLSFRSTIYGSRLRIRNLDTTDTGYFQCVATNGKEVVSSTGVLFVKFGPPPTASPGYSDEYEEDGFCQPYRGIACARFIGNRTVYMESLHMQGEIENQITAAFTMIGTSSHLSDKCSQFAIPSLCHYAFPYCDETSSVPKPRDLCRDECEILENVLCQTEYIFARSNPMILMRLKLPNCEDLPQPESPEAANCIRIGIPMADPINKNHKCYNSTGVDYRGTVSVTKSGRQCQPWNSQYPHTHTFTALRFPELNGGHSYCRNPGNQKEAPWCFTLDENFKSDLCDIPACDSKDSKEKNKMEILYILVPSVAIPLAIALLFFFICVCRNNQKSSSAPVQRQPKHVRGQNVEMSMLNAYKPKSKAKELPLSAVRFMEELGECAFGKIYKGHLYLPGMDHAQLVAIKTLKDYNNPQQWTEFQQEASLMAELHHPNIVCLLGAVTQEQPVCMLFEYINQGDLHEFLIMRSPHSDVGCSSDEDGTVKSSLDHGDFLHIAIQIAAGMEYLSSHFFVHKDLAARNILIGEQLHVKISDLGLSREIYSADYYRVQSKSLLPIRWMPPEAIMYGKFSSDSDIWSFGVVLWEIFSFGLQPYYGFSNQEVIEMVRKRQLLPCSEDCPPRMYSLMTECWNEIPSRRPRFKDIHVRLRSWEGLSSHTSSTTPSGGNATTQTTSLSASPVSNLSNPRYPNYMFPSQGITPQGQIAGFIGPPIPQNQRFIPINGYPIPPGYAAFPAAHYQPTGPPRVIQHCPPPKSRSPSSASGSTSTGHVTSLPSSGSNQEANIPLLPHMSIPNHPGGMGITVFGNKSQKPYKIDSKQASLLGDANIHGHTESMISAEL
Assay: flow cytometry, JeKo-1 and Mino cells

| binding result | Binder |
| --- | --- |
| binds | B1 |
| binds | B2 |
| binds | B3 |
| binds | B4 |
| binds | B5 |
| binds | B6 |
| binds | B7 |
| binds | B8 |

Target: T2, 재조합 인간 ROR1-His (Sino Biological, 13968-H08H) (human, UniProt Q01973 30-403)
T2 construct: bought protein
T2 sequence (Q01973 30-403 limits assumed): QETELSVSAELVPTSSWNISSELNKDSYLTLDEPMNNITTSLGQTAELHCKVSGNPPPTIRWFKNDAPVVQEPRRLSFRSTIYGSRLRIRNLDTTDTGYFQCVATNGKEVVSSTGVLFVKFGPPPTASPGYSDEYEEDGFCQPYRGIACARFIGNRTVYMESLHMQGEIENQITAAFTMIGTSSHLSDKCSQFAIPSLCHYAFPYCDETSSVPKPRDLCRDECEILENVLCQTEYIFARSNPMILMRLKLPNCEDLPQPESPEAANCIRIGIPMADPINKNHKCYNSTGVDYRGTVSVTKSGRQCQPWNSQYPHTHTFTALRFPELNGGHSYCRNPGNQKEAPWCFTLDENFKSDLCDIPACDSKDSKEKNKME
Assay: BLI (Octet), ROR1-His on the sensor, 1:1 fit

| binding result | Binder |
| --- | --- |
| binds | B1 |
| binds | B2 |
| binds | B3 |
| binds | B4 |
| binds | B5 |
| binds | B6 |
| binds | B7 |
| binds | B8 |

Target: T3, 마우스 ROR1 (세포 표면 발현, CHO-mouse ROR1) (mouse, UniProt Q9Z139 30-937)
T3 construct: whole, on cells; transiently overexpressed on CHO cells
T3 sequence (Q9Z139 30-937): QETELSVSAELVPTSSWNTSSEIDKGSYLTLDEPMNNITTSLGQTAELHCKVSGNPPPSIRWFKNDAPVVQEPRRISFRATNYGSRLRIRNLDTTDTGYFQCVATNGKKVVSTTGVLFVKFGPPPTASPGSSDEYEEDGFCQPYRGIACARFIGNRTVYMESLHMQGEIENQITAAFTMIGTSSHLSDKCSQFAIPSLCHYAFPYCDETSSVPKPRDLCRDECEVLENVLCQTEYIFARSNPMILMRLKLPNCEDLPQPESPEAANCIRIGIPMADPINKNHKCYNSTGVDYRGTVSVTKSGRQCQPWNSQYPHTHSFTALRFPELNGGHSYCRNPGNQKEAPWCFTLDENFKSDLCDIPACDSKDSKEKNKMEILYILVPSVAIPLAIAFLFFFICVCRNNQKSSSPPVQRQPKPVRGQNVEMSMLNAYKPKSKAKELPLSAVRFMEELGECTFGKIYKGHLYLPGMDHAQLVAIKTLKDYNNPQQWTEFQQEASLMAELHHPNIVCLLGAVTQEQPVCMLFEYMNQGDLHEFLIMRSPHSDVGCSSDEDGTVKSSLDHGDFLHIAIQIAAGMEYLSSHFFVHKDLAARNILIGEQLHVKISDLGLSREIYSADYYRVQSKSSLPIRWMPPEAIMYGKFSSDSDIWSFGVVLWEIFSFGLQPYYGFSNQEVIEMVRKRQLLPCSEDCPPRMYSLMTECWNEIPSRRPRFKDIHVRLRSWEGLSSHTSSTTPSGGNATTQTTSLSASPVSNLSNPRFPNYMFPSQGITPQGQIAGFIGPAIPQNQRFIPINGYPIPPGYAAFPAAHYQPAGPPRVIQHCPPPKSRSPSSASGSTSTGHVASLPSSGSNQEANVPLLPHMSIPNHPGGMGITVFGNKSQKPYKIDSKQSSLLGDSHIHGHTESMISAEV
Assay: flow cytometry, CHO-mouse ROR1 cells

| binding result | Binder |
| --- | --- |
| binds | B1 |
| binds | B2 |
| binds | B3 |
| binds | B9 |
| binds | B10 |
| binds | B4 |
| binds | B5 |
| binds | B6 |
| binds | B7 |
| binds | B8 |

Target: T4, 인간 ROR1 항원 (ELISA 코팅: 실시예 1의 ROR1-Fc 또는 재조합 인간 ROR1-His) (human, UniProt Q01973 30-406)
T4 construct: extracellular domain; tag therefore open
T4 sequence (Q01973 30-406): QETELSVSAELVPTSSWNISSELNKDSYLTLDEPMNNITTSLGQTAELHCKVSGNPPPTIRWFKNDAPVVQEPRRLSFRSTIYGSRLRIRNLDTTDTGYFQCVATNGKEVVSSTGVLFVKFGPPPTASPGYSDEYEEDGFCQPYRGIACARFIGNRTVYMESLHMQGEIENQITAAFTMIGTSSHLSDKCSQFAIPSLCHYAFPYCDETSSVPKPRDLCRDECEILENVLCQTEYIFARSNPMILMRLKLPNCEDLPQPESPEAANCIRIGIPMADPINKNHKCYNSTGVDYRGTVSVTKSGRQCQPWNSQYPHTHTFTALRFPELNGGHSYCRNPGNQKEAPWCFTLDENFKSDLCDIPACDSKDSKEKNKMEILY
Assay: ELISA, IgG on coated human ROR1 protein

| binding result | Binder |
| --- | --- |
| binds | B1 |
| binds | B2 |
| binds | B3 |
| binds | B4 |
| binds | B5 |
| binds | B6 |
| binds | B7 |
| binds | B8 |

Target: T5, 재조합 마우스 ROR1 단백질 (Acrobiosystems, RO1-M5221) (mouse, UniProt Q9Z139 30-406)
T5 construct: extracellular domain; bought protein; also called 마우스 ROR1 항원
T5 sequence (Q9Z139 30-406): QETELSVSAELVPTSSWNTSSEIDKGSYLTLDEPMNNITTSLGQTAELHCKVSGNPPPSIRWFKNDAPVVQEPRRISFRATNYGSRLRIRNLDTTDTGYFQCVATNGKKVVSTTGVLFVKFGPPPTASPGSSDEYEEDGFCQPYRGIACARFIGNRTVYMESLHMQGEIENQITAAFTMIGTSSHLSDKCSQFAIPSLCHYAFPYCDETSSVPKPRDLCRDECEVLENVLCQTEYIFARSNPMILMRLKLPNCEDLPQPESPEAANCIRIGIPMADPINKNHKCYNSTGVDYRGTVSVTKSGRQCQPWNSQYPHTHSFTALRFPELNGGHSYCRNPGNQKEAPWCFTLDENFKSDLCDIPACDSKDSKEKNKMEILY
Assay: ELISA, IgG on coated recombinant mouse ROR1

| binding result | Binder |
| --- | --- |
| binds | B1 |
| binds | B2 |
| binds | B3 |
| binds | B9 |
| binds | B10 |
| binds | B4 |
| binds | B5 |
| binds | B6 |
| binds | B7 |
| binds | B8 |

Target: T6, 인간 ROR2 (세포 표면 발현, CHO-human ROR2) (human, UniProt Q01974 34-943)
T6 construct: whole, on cells; negative control, transiently overexpressed on CHO cells
T6 sequence (Q01974 34-943): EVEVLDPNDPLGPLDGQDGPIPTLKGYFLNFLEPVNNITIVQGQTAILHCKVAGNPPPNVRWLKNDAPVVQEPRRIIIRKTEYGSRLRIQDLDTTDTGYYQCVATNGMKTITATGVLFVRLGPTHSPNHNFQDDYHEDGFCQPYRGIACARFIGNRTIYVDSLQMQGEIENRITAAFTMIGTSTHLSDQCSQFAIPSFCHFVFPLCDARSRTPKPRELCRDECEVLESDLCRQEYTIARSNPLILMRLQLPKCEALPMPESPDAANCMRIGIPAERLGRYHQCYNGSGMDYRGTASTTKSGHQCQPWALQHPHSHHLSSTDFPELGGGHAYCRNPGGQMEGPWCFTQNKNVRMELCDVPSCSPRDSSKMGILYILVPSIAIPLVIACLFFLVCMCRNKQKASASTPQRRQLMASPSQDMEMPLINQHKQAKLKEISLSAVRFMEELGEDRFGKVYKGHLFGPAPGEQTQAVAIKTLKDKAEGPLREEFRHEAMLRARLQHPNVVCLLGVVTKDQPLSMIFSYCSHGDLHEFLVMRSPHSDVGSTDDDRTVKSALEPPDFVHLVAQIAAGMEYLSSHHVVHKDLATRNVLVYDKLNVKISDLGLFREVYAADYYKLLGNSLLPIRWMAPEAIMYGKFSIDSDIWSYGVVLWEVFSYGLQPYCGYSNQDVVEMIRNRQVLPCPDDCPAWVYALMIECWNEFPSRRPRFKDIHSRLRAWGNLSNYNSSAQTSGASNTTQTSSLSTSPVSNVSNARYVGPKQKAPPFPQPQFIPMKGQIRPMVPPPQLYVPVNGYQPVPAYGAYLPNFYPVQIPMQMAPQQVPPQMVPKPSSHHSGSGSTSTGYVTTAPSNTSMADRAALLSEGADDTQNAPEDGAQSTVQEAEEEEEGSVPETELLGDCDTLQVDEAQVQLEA
Assay: flow cytometry, CHO-human ROR2 cells

| binding result | Binder |
| --- | --- |
| no binding | B1 |
| no binding | B2 |
| no binding | B3 |
| no binding | B9 |
| no binding | B10 |
| no binding | B4 |
| no binding | B5 |
| no binding | B6 |
| no binding | B7 |
| no binding | B8 |
